Our source for the screen value values is publication PMC9221696.

B1: wild-type Fas receptor (Fas/CD95) tagged with mCerulean3 or mVenus [human] / Cerulean3-tagged FADD containing only the death domain (FADD DD) [human] (parent)
chain 1: LCAAFNVICDNVGKDWRRLARQLKVSDTKIDSIEDRYPRNLTERVRESLRIWKNTEKENATVAHLVGALRSCQMNLVADLVQEVQ
chain 2: QVTDINSKGLELRKTVTTVETQNLEGLHHDGQFCHKPCPPGERKARDCTVNGDEPDCVPCQEGKEYTDKAHFSSKCRRCRLCDEGHGLEVEINCTRTQNTKCRCKPNFFCNSTVCEHCDPCTKCEHGIIKECTLTSNTKCKEEGSRSNLGWLCLLLLPIPLIVWVKRKEVQKTCRKHRKENQGSHESPTLNPETVAINLSDVDLSKYITTIAGVMTLSQVKGFVRKNGVNEAKIDEIKNDNVQDTAEQKVQLLRNWHQLHGKKEAYDTLIKDLKKANLCTLAEKIQTIILKDITSDSENSNFRNEIQSLV
B2: wild-type Fas receptor (Fas/CD95) tagged with mCerulean3 or mVenus [human] / itself (parent)
chain: B1 chain 2

Assay [1] covers variants of B1. Briefly: flow-cytometric FRET between Fas and FADD DD in live cells. As to conditions: with Cerulean3-tagged FADD containing only the death domain (FADD DD) [human], RapoC2 (Fas-deficient Jurkat) cells, read off a plot.
Variants of B2 are the subject of the assay “itself”. Kind of assay: flow-cytometric FRET (mCerulean3/mVenus) in live cells. To be noted: with itself, RapoC2 (Fas-deficient Jurkat) cells, 24 h post-transfection, read off a plot.

Regarding chain 2 QVTDINSKGLELRKTVTTVETQNLEGLHHDGQFCHKPCPPGERKARDCTVNGDEPDCVPCQEGKEYTDKAHFSSKCRRCRLCDEGHGLEVEINCTRTQNTKCRCKPNFFCNSTVCEHCDPCTKCEHGIIKECTLTSNTKCKEEGSRSNLGWLCLLLLPIPLIVWVKRKEVQKTCRKHRKENQGSHESPTLNPETVAINLSDVDLSKYITTIAGVMTLSQVKGFVRKNGVNEDKIDEIKNDNVQDTAEQKVQLLRNWHQLHGKKEAYDTLIKDLKKANLCTLAEKIQTIILKDITSDSENSNFRNEIQSLV [chain 2 A232D], the screen value in assay [1] (FasL-LZ 5 min, parent: 1.3) was determined as 1.1; in assay [1] (FasL-LZ 15 min, parent: 1.5), 1.1; in assay [1] (FasL-LZ 30 min, parent: 1.7), 1.1; in assay [1] (FasL-LZ 60 min, parent: 1.9) it was 1.1; in assay [1] (FasL-LZ 120 min, parent: 1.9) it was 1.1.

Turning to chain 2 QVTDINSKGLELRKTVTTVETQNLEGLHHDGQFCHKPCPPGERKARDCTVNGDEPDCVPCQEGKEYTDKAHFSSKCRRCRLCDEGHGLEVEINCTRTQNTKCRCKPNFFCNSTVCEHCDPCTKCEHGIIKECTLTSNTKCKEEGSRSNLGWLCLLLLPIPLIVWVKRKEVQKTCRKHRKENQGSHESPTLNPETVAINLSDVDLSKYITTIAGVMTLSQVKGFVRKNGVNEAKIDKIKNDNVQDTAEQKVQLLRNWHQLHGKKEAYDTLIKDLKKANLCTLAEKIQTIILKDITSDSENSNFRNEIQSLV [chain 2 E236K], the screen value in assay [1] (FasL-LZ 5 min, parent: 1.3) is 1.1; in assay [1] (FasL-LZ 15 min, parent: 1.5), 1.1; in assay [1] (FasL-LZ 30 min, parent: 1.7), 1.1; in assay [1] (FasL-LZ 60 min, parent: 1.9), 1.1; in assay [1] (FasL-LZ 120 min, parent: 1.9) it was 1.1.

Consider chain 2 QVTDINSKGLELRKTVTTVETQNLEGLHHDGQFCHKPCPPGERKARDCTVNGDEPDCVPCQEGKEYTDKAHFSSKCRRCRLCDEGHGLEVEINCTRTQNTKCRCKPNFFCNSTVCEHCDPCTKCEHGIIKECTLTSNTKCKEEGSRSNLGWLCLLLLPIPLIVWVKRKEVQKTVRKHRKENQGSHESPTLNPETVAINLSDVDLSKYITTIAGVMTLSQVKGFVRKNGVNEAKIDEIKNDNVQDTAEQKVQLLRNWHQLHGKKEAYDTLIKDLKKANLCTLAEKIQTIILKDITSDSENSNFRNEIQSLV [chain 2 C174V], for which the screen value in assay [1] (FasL-LZ 5 min, parent: 1.3) was 1.4; in assay [1] (FasL-LZ 15 min, parent: 1.5), 1.6; in assay [1] (FasL-LZ 30 min, parent: 1.7), 1.8; in assay [1] (FasL-LZ 60 min, parent: 1.9), 1.9; in assay [1] (FasL-LZ 120 min, parent: 1.9) it was 2.

Consider QVTDINSKGLELRKTVTTVETQNLEGLHHDGQFCHKPCPPGERKARDCTVNGDEPDCVPCQEGKEYTDKAHFSSKCRRCRLCDEGHGLEVEINCTRTQNTKCRCKPNFFCNSTVCEHCDPCTKCEHGIIKECTLTSNTKCKEEGSRSNLGWLCLLLLPIPLIVWVKRKEVQKTCRKHRKENQGSHESPTLNPETVAINLSDVDLSKYITTIAGVMTLSQVKGFVRKNGVNEDKIDEIKNDNVQDTAEQKVQLLRNWHQLHGKKEAYDTLIKDLKKANLCTLAEKIQTIILKDITSDSENSNFRNEIQSLV [chain 1 A232D], for which the screen value with itself (FasL-LZ 5 min, parent: 1.5) came out at 1.3; with itself (FasL-LZ 15 min, parent: 1.9) it was 1.5; with itself (FasL-LZ 30 min, parent: 2), 1.6; with itself (FasL-LZ 60 min, parent: 1.9), 1.6; with itself (FasL-LZ 120 min, parent: 1.9), 1.6.

For QVTDINSKGLELRKTVTTVETQNLEGLHHDGQFCHKPCPPGERKARDCTVNGDEPDCVPCQEGKEYTDKAHFSSKCRRCRLCDEGHGLEVEINCTRTQNTKCRCKPNFFCNSTVCEHCDPCTKCEHGIIKECTLTSNTKCKEEGSRSNLGWLCLLLLPIPLIVWVKRKEVQKTCRKHRKENQGSHESPTLNPETVAINLSDVDLSKYITTIAGVMTLSQVKGFVRKNGVNEAKIDKIKNDNVQDTAEQKVQLLRNWHQLHGKKEAYDTLIKDLKKANLCTLAEKIQTIILKDITSDSENSNFRNEIQSLV [chain 1 E236K], the screen value with itself (FasL-LZ 5 min, parent: 1.5) turned out to be 1.3; with itself (FasL-LZ 15 min, parent: 1.9), 1.5; with itself (FasL-LZ 30 min, parent: 2) it was 1.6; with itself (FasL-LZ 60 min, parent: 1.9), 1.6; with itself (FasL-LZ 120 min, parent: 1.9), 1.6.

For the variant QVTDINSKGLELRKTVTTVETQNLEGLHHDGQFCHKPCPPGERKARDCTVNGDEPDCVPCQEGKEYTDKAHFSSKCRRCRLCDEGHGLEVEINCTRTQNTKCRCKPNFFCNSTVCEHCDPCTKCEHGIIKECTLTSNTKCKEEGSRSNLGWLCLLLLPIPLIVWVKRKEVQKTVRKHRKENQGSHESPTLNPETVAINLSDVDLSKYITTIAGVMTLSQVKGFVRKNGVNEAKIDEIKNDNVQDTAEQKVQLLRNWHQLHGKKEAYDTLIKDLKKANLCTLAEKIQTIILKDITSDSENSNFRNEIQSLV [chain 1 C174V], the screen value was determined as 1.5 in the assay with itself (FasL-LZ 5 min, parent: 1.5); 1.9 with itself (FasL-LZ 15 min, parent: 1.9); 2.1 with itself (FasL-LZ 30 min, parent: 2).
